The values below come from paper PMC5836512 (Molecular cell, 2018).

Read-outs that look alike come from different tables or passages of the source.

Experiment [1] concerns the target T1, Cul1•^GSTRbx1 (UniProt Q13616 1-776; P62877 1-108). Description: pull-down.
In experiment [2] the target is T2, Cul1^AMC•Rbx1 (UniProt Q13616 1-776; P62877 1-108, AMC on the C-terminus (GGGG^AMC peptide joined by sortase)). Description: FRET or BRET. (BRET reads energy transfer from a luciferase to a nearby fluorophore.)
T2 sequence (Q13616 whole entry, chain 1 of 2): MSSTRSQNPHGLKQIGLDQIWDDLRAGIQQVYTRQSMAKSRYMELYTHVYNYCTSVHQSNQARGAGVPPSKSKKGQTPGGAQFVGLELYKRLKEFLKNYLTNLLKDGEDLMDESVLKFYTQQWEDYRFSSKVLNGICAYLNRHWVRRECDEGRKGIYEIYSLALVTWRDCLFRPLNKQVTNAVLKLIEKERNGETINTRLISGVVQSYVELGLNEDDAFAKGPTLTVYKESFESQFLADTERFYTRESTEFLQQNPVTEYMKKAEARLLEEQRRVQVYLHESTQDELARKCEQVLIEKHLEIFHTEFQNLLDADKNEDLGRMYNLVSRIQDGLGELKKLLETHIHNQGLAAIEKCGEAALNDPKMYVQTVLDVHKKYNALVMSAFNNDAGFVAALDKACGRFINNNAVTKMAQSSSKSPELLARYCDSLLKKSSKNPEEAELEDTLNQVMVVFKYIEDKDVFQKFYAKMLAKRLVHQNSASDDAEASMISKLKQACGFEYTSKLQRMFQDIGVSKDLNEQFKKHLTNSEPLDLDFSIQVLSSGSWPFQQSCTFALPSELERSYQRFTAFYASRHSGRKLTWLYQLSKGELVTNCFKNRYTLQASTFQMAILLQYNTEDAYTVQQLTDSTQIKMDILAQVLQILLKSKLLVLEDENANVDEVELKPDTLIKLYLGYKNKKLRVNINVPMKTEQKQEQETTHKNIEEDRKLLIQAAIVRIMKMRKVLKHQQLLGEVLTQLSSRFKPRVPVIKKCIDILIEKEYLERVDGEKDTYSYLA
T2 sequence (P62877 whole entry, chain 2 of 2): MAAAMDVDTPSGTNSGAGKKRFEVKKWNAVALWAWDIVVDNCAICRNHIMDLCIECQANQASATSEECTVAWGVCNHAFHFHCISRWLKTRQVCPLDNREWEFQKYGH
Experiment [3] concerns the target T2, Cul1^AMC•Rbx1. Description: FRET or BRET. The source holds these as a separate data set.
Experiment [4] addresses T1, Cul1•^GSTRbx1. Description: pull-down. The source holds these as a separate data set.
Experiment [5] has as its target T1, Cul1•^GSTRbx1. Description: pull-down. The source holds these as a separate data set.

T1 sequence (Q13616 whole entry, chain 1 of 2): as the sequence (Q13616 whole entry, chain 1 of 2) above
T1 sequence (P62877 whole entry, chain 2 of 2): as the sequence (P62877 whole entry, chain 2 of 2) above

B1: ^ΔH1Cand1 (domain or fragment, UniProt Q86VP6 15-1230, looked up)
chain: MTSSDKDFRFMATNDLMTELQKDSIKLDDDSERKVVKMILKLLEDKNGEVQNLAVKCLGPLVSKVKEYQVETIVDTLCTNMLSDKEQLRDISSIGLKTVIGELPPASSGSALAANVCKKITGRLTSAIAKQEDVSVQLEALDIMADMLSRQGGLLVNFHPSILTCLLPQLTSPRLAVRKRTIIALGHLVMSCGNIVFVDLIEHLLSELSKNDSMSTTRTYIQCIAAISRQAGHRIGEYLEKIIPLVVKFCNVDDDELREYCIQAFESFVRRCPKEVYPHVSTIINICLKYLTYDPNYNYDDEDEDENAMDADGGDDDDQGSDDEYSDDDDMSWKVRRAAAKCLDAVVSTRHEMLPEFYKTVSPALISRFKEREENVKADVFHAYLSLLKQTRPVQSWLCDPDAMEQGETPLTMLQSQVPNIVKALHKQMKEKSVKTRQCCFNMLTELVNVLPGALTQHIPVLVPGIIFSLNDKSSSSNLKIDALSCLYVILCNHSPQVFHPHVQALVPPVVACVGDPFYKITSEALLVTQQLVKVIRPLDQPSSFDATPYIKDLFTCTIKRLKAADIDQEVKERAISCMGQIICNLGDNLGSDLPNTLQIFLERLKNEITRLTTVKALTLIAGSPLKIDLRPVLGEGVPILASFLRKNQRALKLGTLSALDILIKNYSDSLTAAMIDAVLDELPPLISESDMHVSQMAISFLTTLAKVYPSSLSKISGSILNELIGLVRSPLLQGGALSAMLDFFQALVVTGTNNLGYMDLLRMLTGPVYSQSTALTHKQSYYSIAKCVAALTRACPKEGPAVVGQFIQDVKNSRSTDSIRLLALLSLGEVGHHIDLSGQLELKSVILEAFSSPSEEVKSAASYALGSISVGNLPEYLPFVLQEITSQPKRQYLLLHSLKEIISSASVVGLKPYVENIWALLLKHCECAEEGTRNVVAECLGKLTLIDPETLLPRLKGYLISGSSYARSSVVTAVKFTISDHPQPIDPLLKNCIGDFLKTLEDPDLNVRRVALVTFNSAAHNKPSLIRDLLDTVLPHLYNETKVRKELIREVEMGPFKHTVDDGLDIRKAAFECMYTLLDSCLDRLDIFEFLNHVEDGLKDHYDIKMLTFLMLVRLSTLCPSAVLQRLDRLVEPLRATCTTKVKANSVKQEFEKQDELKRSAMRAVAALLTIPEAEKSPLMSEFQSQISSNPELAAIFESIQKDSSSTNLESMDTS
B1: the “fold increase of KD over WT Cand1” value in the experiment with Cul1•^GSTRbx1 [1] was ~4.5 fold. Besides, the “fold of koff (fast phase) over WT Cand1” value with Cul1^AMC•Rbx1 [2] came out at 21 fold.

B2: ^FlAsHΔH1Cand1 (domain or fragment, UniProt Q86VP6 15-1230, looked up)
chain: B1 chain
modifications: FlAsH (Lumio Green) on the N-terminal tetracysteine tag
Broadly, the Kd is the constant that tells how readily two partners part at equilibrium. A high value points to a looser complex. Consider B2, for which, in the experiment with Cul1^AMC•Rbx1 [3], the Kd was determined as 0.7 pM.

B3: Cand1^1-603 (domain or fragment, UniProt Q86VP6 1-603, looked up)
chain: MASASYHISNLLEKMTSSDKDFRFMATNDLMTELQKDSIKLDDDSERKVVKMILKLLEDKNGEVQNLAVKCLGPLVSKVKEYQVETIVDTLCTNMLSDKEQLRDISSIGLKTVIGELPPASSGSALAANVCKKITGRLTSAIAKQEDVSVQLEALDIMADMLSRQGGLLVNFHPSILTCLLPQLTSPRLAVRKRTIIALGHLVMSCGNIVFVDLIEHLLSELSKNDSMSTTRTYIQCIAAISRQAGHRIGEYLEKIIPLVVKFCNVDDDELREYCIQAFESFVRRCPKEVYPHVSTIINICLKYLTYDPNYNYDDEDEDENAMDADGGDDDDQGSDDEYSDDDDMSWKVRRAAAKCLDAVVSTRHEMLPEFYKTVSPALISRFKEREENVKADVFHAYLSLLKQTRPVQSWLCDPDAMEQGETPLTMLQSQVPNIVKALHKQMKEKSVKTRQCCFNMLTELVNVLPGALTQHIPVLVPGIIFSLNDKSSSSNLKIDALSCLYVILCNHSPQVFHPHVQALVPPVVACVGDPFYKITSEALLVTQQLVKVIRPLDQPSSFDATPYIKDLFTCTIKRLKAADIDQEVKERAISCMGQIICNLGDN
Consider B3, for which the binding result in the experiment with Cul1•^GSTRbx1 [4] was “binds”.

B4: Cand1 (natural protein, UniProt Q86VP6 1-1230, looked up)
chain: MASASYHISNLLEKMTSSDKDFRFMATNDLMTELQKDSIKLDDDSERKVVKMILKLLEDKNGEVQNLAVKCLGPLVSKVKEYQVETIVDTLCTNMLSDKEQLRDISSIGLKTVIGELPPASSGSALAANVCKKITGRLTSAIAKQEDVSVQLEALDIMADMLSRQGGLLVNFHPSILTCLLPQLTSPRLAVRKRTIIALGHLVMSCGNIVFVDLIEHLLSELSKNDSMSTTRTYIQCIAAISRQAGHRIGEYLEKIIPLVVKFCNVDDDELREYCIQAFESFVRRCPKEVYPHVSTIINICLKYLTYDPNYNYDDEDEDENAMDADGGDDDDQGSDDEYSDDDDMSWKVRRAAAKCLDAVVSTRHEMLPEFYKTVSPALISRFKEREENVKADVFHAYLSLLKQTRPVQSWLCDPDAMEQGETPLTMLQSQVPNIVKALHKQMKEKSVKTRQCCFNMLTELVNVLPGALTQHIPVLVPGIIFSLNDKSSSSNLKIDALSCLYVILCNHSPQVFHPHVQALVPPVVACVGDPFYKITSEALLVTQQLVKVIRPLDQPSSFDATPYIKDLFTCTIKRLKAADIDQEVKERAISCMGQIICNLGDNLGSDLPNTLQIFLERLKNEITRLTTVKALTLIAGSPLKIDLRPVLGEGVPILASFLRKNQRALKLGTLSALDILIKNYSDSLTAAMIDAVLDELPPLISESDMHVSQMAISFLTTLAKVYPSSLSKISGSILNELIGLVRSPLLQGGALSAMLDFFQALVVTGTNNLGYMDLLRMLTGPVYSQSTALTHKQSYYSIAKCVAALTRACPKEGPAVVGQFIQDVKNSRSTDSIRLLALLSLGEVGHHIDLSGQLELKSVILEAFSSPSEEVKSAASYALGSISVGNLPEYLPFVLQEITSQPKRQYLLLHSLKEIISSASVVGLKPYVENIWALLLKHCECAEEGTRNVVAECLGKLTLIDPETLLPRLKGYLISGSSYARSSVVTAVKFTISDHPQPIDPLLKNCIGDFLKTLEDPDLNVRRVALVTFNSAAHNKPSLIRDLLDTVLPHLYNETKVRKELIREVEMGPFKHTVDDGLDIRKAAFECMYTLLDSCLDRLDIFEFLNHVEDGLKDHYDIKMLTFLMLVRLSTLCPSAVLQRLDRLVEPLRATCTTKVKANSVKQEFEKQDELKRSAMRAVAALLTIPEAEKSPLMSEFQSQISSNPELAAIFESIQKDSSSTNLESMDTS
As for B4, the binding result in the experiment with Cul1•^GSTRbx1 [5] is listed as “binds”.
